Article PMC9482650, “Quantitative fragmentomics allow affinity mapping of interactomes” (Nature Communications, 2022)

T1: PCLO, Q9Y6V0
T1 sequence (Q9Y6V0 4491-4600, limits assumed, looked up): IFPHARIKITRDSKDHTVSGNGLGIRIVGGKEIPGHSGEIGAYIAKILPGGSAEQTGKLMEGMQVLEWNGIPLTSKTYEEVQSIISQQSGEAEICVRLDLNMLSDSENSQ

T2: GRIP1_5, Q9Y3R0
T2 sequence (Q9Y3R0 568-668, limits assumed, looked up): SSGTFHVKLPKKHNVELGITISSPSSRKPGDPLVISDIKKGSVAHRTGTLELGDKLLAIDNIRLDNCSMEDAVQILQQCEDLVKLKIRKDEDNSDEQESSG

T3: LIN7A, O14910
T3 sequence (O14910 103-200, limits assumed, looked up): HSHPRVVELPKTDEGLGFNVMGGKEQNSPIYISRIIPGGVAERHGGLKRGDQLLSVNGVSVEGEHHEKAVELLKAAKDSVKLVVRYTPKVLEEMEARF

T4: PDZRN3_1, Q9UPQ7
T4 sequence (Q9UPQ7 244-349, limits assumed, looked up): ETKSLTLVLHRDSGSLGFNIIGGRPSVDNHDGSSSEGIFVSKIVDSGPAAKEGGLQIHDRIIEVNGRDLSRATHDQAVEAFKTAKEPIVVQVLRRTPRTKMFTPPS

T5: PTPN13_1, Q12923
T5 sequence (Q12923 1088-1188, limits assumed, looked up): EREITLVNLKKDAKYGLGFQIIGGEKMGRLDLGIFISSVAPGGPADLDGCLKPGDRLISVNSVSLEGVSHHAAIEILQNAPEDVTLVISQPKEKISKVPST

T6: MPP6, Q9NZW5
T6 sequence (Q9NZW5 125-219, limits assumed, looked up): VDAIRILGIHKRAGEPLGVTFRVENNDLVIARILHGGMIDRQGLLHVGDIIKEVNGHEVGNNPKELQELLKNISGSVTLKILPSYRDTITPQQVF

T7: MPP7, Q5T2T1
T7 sequence (Q5T2T1 134-230, limits assumed, looked up): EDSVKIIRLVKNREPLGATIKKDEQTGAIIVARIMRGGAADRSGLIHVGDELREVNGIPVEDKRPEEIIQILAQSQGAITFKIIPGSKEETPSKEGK

T8: ARHGEF11, O15085
T8 sequence (O15085 42-136, limits assumed, looked up): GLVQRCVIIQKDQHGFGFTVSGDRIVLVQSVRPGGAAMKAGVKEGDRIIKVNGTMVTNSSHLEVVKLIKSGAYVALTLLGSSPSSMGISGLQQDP

T9: SYNJ2BP, P57105
T9 sequence (P57105 8-110, limits assumed, looked up): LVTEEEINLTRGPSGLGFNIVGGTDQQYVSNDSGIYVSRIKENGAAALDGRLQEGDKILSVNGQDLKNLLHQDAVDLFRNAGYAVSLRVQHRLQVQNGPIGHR

T10: GRIP1_7, Q9Y3R0
T10 sequence (Q9Y3R0 999-1096, limits assumed, looked up): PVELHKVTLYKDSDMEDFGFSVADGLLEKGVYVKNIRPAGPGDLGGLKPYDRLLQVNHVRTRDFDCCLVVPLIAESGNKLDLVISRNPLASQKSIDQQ


target: T1, PCLO, Q9Y6V0; assay: holdup assay; parameters: key: below the threshold = too weak to quantify, mostly under pKd 3.1 to 4; conditions: plain residues with an end cap or a label only (N-terminal biotin on a linker: ado-ado)

pKd	Binder
below the threshold	EFKQTSSFLV [JAM1, Q9Y624]
below the threshold	SQPLLVHDDV [KIT, P10721]

target: GRASP, Q7Z6J2; assay: holdup assay; parameters: key: below the threshold = too weak to quantify, mostly under pKd 3.1 to 4; conditions: plain residues with an end cap or a label only (N-terminal biotin on a linker: ado-ado)
Sequence (Q7Z6J2 96-193): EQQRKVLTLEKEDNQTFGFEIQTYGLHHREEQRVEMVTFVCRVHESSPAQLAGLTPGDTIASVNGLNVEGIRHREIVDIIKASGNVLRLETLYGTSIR

pKd	Binder
3.56	EFKQTSSFLV [JAM1, Q9Y624]
below the threshold	SQPLLVHDDV [KIT, P10721]

target: MAGI2_3, Q86UL8; assay: holdup assay; parameters: key: below the threshold = too weak to quantify, mostly under pKd 3.1 to 4; conditions: plain residues with an end cap or a label only (N-terminal biotin on a linker: ado-ado)
Sequence (Q86UL8 600-682): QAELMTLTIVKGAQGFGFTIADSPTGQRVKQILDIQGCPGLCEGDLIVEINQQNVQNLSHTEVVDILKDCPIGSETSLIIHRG

pKd	Binder
3.54	EFKQTSSFLV [JAM1, Q9Y624]
below the threshold	SQPLLVHDDV [KIT, P10721]

target: T2, GRIP1_5, Q9Y3R0; assay: holdup assay; parameters: key: below the threshold = too weak to quantify, mostly under pKd 3.1 to 4; conditions: plain residues with an end cap or a label only (N-terminal biotin on a linker: ado-ado)

pKd	Binder
below the threshold	EFKQTSSFLV [JAM1, Q9Y624]
below the threshold	SQPLLVHDDV [KIT, P10721]

target: T3, LIN7A, O14910; assay: holdup assay; parameters: key: below the threshold = too weak to quantify, mostly under pKd 3.1 to 4; conditions: plain residues with an end cap or a label only (N-terminal biotin on a linker: ado-ado)

pKd	Binder
below the threshold	EFKQTSSFLV [JAM1, Q9Y624]
below the threshold	SQPLLVHDDV [KIT, P10721]

target: SCRIB_2, Q14160; assay: holdup assay; parameters: key: below the threshold = too weak to quantify, mostly under pKd 3.1 to 4; conditions: plain residues with an end cap or a label only (N-terminal biotin on a linker: ado-ado)
Sequence (Q14160 857-960): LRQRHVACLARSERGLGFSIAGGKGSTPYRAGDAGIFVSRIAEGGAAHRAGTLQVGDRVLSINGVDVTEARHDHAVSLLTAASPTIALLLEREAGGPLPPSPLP

pKd	Binder
below the threshold	EFKQTSSFLV [JAM1, Q9Y624]
below the threshold	SQPLLVHDDV [KIT, P10721]

target: T4, PDZRN3_1, Q9UPQ7; assay: holdup assay; parameters: key: below the threshold = too weak to quantify, mostly under pKd 3.1 to 4; conditions: plain residues with an end cap or a label only (N-terminal biotin on a linker: ado-ado)

pKd	Binder
below the threshold	EFKQTSSFLV [JAM1, Q9Y624]
below the threshold	SQPLLVHDDV [KIT, P10721]

target: Inadl_4, Q8NI35; assay: holdup assay; parameters: key: below the threshold = too weak to quantify, mostly under pKd 3.1 to 4; conditions: plain residues with an end cap or a label only (N-terminal biotin on a linker: ado-ado)
Sequence (Q8NI35 547-651): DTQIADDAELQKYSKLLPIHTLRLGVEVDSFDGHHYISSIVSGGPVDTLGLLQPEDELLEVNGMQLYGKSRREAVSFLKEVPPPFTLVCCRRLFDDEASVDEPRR

pKd	Binder
below the threshold	EFKQTSSFLV [JAM1, Q9Y624]
below the threshold	SQPLLVHDDV [KIT, P10721]

target: HTRA1, Q92743; assay: holdup assay; parameters: key: below the threshold = too weak to quantify, mostly under pKd 3.1 to 4; conditions: plain residues with an end cap or a label only (N-terminal biotin on a linker: ado-ado)
Sequence (Q92743 360-477): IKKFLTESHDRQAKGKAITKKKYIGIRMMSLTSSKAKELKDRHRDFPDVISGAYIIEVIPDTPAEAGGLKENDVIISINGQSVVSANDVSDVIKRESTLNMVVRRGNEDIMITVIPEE

pKd	Binder
5.15	EFKQTSSFLV [JAM1, Q9Y624]
below the threshold	SQPLLVHDDV [KIT, P10721]

target: GIPC2, Q8TF65; assay: holdup assay; parameters: key: below the threshold = too weak to quantify, mostly under pKd 3.1 to 4; conditions: plain residues with an end cap or a label only (N-terminal biotin on a linker: ado-ado)
Sequence (Q8TF65 112-203): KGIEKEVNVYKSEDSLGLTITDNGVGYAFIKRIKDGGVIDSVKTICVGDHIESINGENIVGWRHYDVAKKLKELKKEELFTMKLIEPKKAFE

pKd	Binder
below the threshold	EFKQTSSFLV [JAM1, Q9Y624]
below the threshold	SQPLLVHDDV [KIT, P10721]

target: T5, PTPN13_1, Q12923; assay: holdup assay; parameters: key: below the threshold = too weak to quantify, mostly under pKd 3.1 to 4; conditions: plain residues with an end cap or a label only (N-terminal biotin on a linker: ado-ado)

pKd	Binder
below the threshold	EFKQTSSFLV [JAM1, Q9Y624]
below the threshold	SQPLLVHDDV [KIT, P10721]

target: T6, MPP6, Q9NZW5; assay: holdup assay; parameters: key: below the threshold = too weak to quantify, mostly under pKd 3.1 to 4; conditions: plain residues with an end cap or a label only (N-terminal biotin on a linker: ado-ado)

pKd	Binder
below the threshold	EFKQTSSFLV [JAM1, Q9Y624]
below the threshold	SQPLLVHDDV [KIT, P10721]

target: FRMPD2_1, Q68DX3; assay: holdup assay; parameters: key: below the threshold = too weak to quantify, mostly under pKd 3.1 to 4; conditions: plain residues with an end cap or a label only (N-terminal biotin on a linker: ado-ado)
Sequence (Q68DX3 770-861): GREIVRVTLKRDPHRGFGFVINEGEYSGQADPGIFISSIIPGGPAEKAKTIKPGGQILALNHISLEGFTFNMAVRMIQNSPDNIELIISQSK

pKd	Binder
3.75	EFKQTSSFLV [JAM1, Q9Y624]
below the threshold	SQPLLVHDDV [KIT, P10721]

target: GRID2IP_1, A4D2P6; assay: holdup assay; parameters: key: below the threshold = too weak to quantify, mostly under pKd 3.1 to 4; conditions: plain residues with an end cap or a label only (N-terminal biotin on a linker: ado-ado)
Sequence (A4D2P6 1-87): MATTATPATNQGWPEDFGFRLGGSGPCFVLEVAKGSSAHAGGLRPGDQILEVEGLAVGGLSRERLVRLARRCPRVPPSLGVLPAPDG

pKd	Binder
below the threshold	EFKQTSSFLV [JAM1, Q9Y624]
below the threshold	SQPLLVHDDV [KIT, P10721]

target: T7, MPP7, Q5T2T1; assay: holdup assay; parameters: key: below the threshold = too weak to quantify, mostly under pKd 3.1 to 4; conditions: plain residues with an end cap or a label only (N-terminal biotin on a linker: ado-ado)

pKd	Binder
3.74	EFKQTSSFLV [JAM1, Q9Y624]
below the threshold	SQPLLVHDDV [KIT, P10721]

target: GRIP2_6, Q9C0E4; assay: holdup assay; parameters: key: below the threshold = too weak to quantify, mostly under pKd 3.1 to 4; conditions: plain residues with an end cap or a label only (N-terminal biotin on a linker: ado-ado)
Sequence (Q9C0E4 648-740): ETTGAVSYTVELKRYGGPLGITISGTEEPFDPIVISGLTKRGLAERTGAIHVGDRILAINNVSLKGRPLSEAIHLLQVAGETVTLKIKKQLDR

pKd	Binder
4.35	EFKQTSSFLV [JAM1, Q9Y624]
below the threshold	SQPLLVHDDV [KIT, P10721]

target: AHNAK1, Q09666; assay: holdup assay; parameters: key: below the threshold = too weak to quantify, mostly under pKd 3.1 to 4; conditions: plain residues with an end cap or a label only (N-terminal biotin on a linker: ado-ado)
Sequence (Q09666 4-100): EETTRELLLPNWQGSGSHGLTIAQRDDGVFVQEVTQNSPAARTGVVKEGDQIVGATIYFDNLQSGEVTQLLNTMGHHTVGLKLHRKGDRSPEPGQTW

pKd	Binder
below the threshold	EFKQTSSFLV [JAM1, Q9Y624]
below the threshold	SQPLLVHDDV [KIT, P10721]

target: MAST2, Q6P0Q8; assay: holdup assay; parameters: key: below the threshold = too weak to quantify, mostly under pKd 3.1 to 4; conditions: plain residues with an end cap or a label only (N-terminal biotin on a linker: ado-ado)
Sequence (Q6P0Q8 1099-1202): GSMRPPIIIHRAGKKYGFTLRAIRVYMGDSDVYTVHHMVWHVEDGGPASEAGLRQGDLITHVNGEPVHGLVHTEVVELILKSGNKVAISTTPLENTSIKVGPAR

pKd	Binder
below the threshold	EFKQTSSFLV [JAM1, Q9Y624]
below the threshold	SQPLLVHDDV [KIT, P10721]

target: NHERF4_2, Q86UT5; assay: holdup assay; parameters: key: below the threshold = too weak to quantify, mostly under pKd 3.1 to 4; conditions: plain residues with an end cap or a label only (N-terminal biotin on a linker: ado-ado)
Sequence (Q86UT5 220-308): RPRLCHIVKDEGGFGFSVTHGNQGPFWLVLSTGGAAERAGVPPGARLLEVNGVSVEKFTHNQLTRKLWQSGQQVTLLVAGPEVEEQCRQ

pKd	Binder
below the threshold	EFKQTSSFLV [JAM1, Q9Y624]
below the threshold	SQPLLVHDDV [KIT, P10721]

target: T8, ARHGEF11, O15085; assay: holdup assay; parameters: key: below the threshold = too weak to quantify, mostly under pKd 3.1 to 4; conditions: plain residues with an end cap or a label only (N-terminal biotin on a linker: ado-ado)

pKd	Binder
below the threshold	EFKQTSSFLV [JAM1, Q9Y624]
below the threshold	SQPLLVHDDV [KIT, P10721]

target: T9, SYNJ2BP, P57105; assay: holdup assay; parameters: key: below the threshold = too weak to quantify, mostly under pKd 3.1 to 4; conditions: plain residues with an end cap or a label only (N-terminal biotin on a linker: ado-ado)

pKd	Binder
below the threshold	EFKQTSSFLV [JAM1, Q9Y624]
below the threshold	SQPLLVHDDV [KIT, P10721]

target: GRIP2_3, Q9C0E4; assay: holdup assay; parameters: key: below the threshold = too weak to quantify, mostly under pKd 3.1 to 4; conditions: plain residues with an end cap or a label only (N-terminal biotin on a linker: ado-ado)
Sequence (Q9C0E4 238-339): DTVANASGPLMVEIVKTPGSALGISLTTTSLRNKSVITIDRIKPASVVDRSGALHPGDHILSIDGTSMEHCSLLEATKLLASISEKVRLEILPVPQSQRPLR

pKd	Binder
below the threshold	EFKQTSSFLV [JAM1, Q9Y624]
below the threshold	SQPLLVHDDV [KIT, P10721]

target: MAGI1_1, Q96QZ7; assay: holdup assay; parameters: key: below the threshold = too weak to quantify, mostly under pKd 3.1 to 4; conditions: plain residues with an end cap or a label only (N-terminal biotin on a linker: ado-ado)
Sequence (Q96QZ7 1-106): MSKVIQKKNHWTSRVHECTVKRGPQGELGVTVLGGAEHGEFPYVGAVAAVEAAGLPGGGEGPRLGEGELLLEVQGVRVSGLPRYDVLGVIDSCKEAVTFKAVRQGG

pKd	Binder
3.49	EFKQTSSFLV [JAM1, Q9Y624]
below the threshold	SQPLLVHDDV [KIT, P10721]

target: T10, GRIP1_7, Q9Y3R0; assay: holdup assay; parameters: key: below the threshold = too weak to quantify, mostly under pKd 3.1 to 4; conditions: plain residues with an end cap or a label only (N-terminal biotin on a linker: ado-ado)

pKd	Binder
below the threshold	EFKQTSSFLV [JAM1, Q9Y624]
below the threshold	SQPLLVHDDV [KIT, P10721]

target: DLG4_2, P78352; assay: holdup assay; parameters: key: below the threshold = too weak to quantify, mostly under pKd 3.1 to 4; conditions: plain residues with an end cap or a label only (N-terminal biotin on a linker: ado-ado)
Sequence (P78352 155-259): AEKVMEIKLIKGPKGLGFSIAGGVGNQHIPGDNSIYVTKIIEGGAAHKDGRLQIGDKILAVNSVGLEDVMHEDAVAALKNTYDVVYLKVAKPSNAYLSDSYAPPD

pKd	Binder
3.47	EFKQTSSFLV [JAM1, Q9Y624]
below the threshold	SQPLLVHDDV [KIT, P10721]

target: MAGI2_5, Q86UL8; assay: holdup assay; parameters: key: below the threshold = too weak to quantify, mostly under pKd 3.1 to 4; conditions: plain residues with an end cap or a label only (N-terminal biotin on a linker: ado-ado)
Sequence (Q86UL8 915-1017): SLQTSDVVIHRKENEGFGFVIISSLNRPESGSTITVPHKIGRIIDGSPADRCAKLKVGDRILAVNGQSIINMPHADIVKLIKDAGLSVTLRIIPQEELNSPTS

pKd	Binder
below the threshold	EFKQTSSFLV [JAM1, Q9Y624]
below the threshold	SQPLLVHDDV [KIT, P10721]

target: MAGI1_2, Q96QZ7; assay: holdup assay; parameters: key: below the threshold = too weak to quantify, mostly under pKd 3.1 to 4; conditions: plain residues with an end cap or a label only (N-terminal biotin on a linker: ado-ado)
Sequence (Q96QZ7 456-580): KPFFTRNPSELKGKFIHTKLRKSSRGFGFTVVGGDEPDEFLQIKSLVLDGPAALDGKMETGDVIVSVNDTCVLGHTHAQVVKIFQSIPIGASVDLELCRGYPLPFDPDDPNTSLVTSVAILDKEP

pKd	Binder
below the threshold	EFKQTSSFLV [JAM1, Q9Y624]
below the threshold	SQPLLVHDDV [KIT, P10721]
